Data taken from US10724009B2, “Cannabichromenic acid synthase from Cannabis sativa” (priority 2014, dated 2020).
“And” between values parts separate entries of the source, which are not always exact repeats. Identical values can stand only once.

Columns and labels:
recombinant CBCAS = biological target: T1, recombinant CBCAS (Cannabis sativa, UniProt Q33DQ2, H543R/W244C); assay: CBCAS assay: conversion of CBGA to CBCA, products analysed by HPLC/LCMS; assay type: biochemical; settings: for inhibition of recombinant CBCAS by additive: FIG. 4, effect of additive on CBCA production, high concentrations; for formation of CBCA from CBGA: recombinant enzyme expressed in Pichia pastoris, CBGA incubated 14 h
T1 construct: alpha-factor signal peptide (vector encoded) (N); made in house; host or cells: Pichia pastoris strain X33
Description: FIG. 4 depicts optimal conditions for CBCAS activity. […] Values are expressed as a fraction of CBCA produced (CBCA A265 nm/(CBGA A265 nm+CBCA A265 nm)*100).
Reactions using media were performed by incubating 10 μmols CBGA in 500 μL of clarified culture media for 14 h. Reactions using hydroxyl-apatite fractions were performed with 100 μL of the fraction incubated with 10 nmols of CBGA for 14 h. Completed reactions were acidified with one drop of 4 N HCl and extracted twice with 400 μL of acetonitrile. After centrifugation, the organic phases were pooled and evaporated to dryness. Products were resuspended in 20 μL of 50% methanol, of which 10 μL was analyzed by LCMS. Products were separated with a Waters Alliance HPLC using a binary solvent system (solvent A: 10% acetonitrile, 0.05% formic acid; solvent B: 99.95% acetonitrile, 0.05% formic acid) and an Ascnetis C18 5 cm×2.1 mm 2.7 μm column (Sigma). Initial conditions: 55% A at 0.25 mL/min. Ramp to 5% A from 0-8 min, hold at 5% A for 2.5 min, return to initial conditions over 2 min and equilibrate at initial conditions for 7 min. Ultraviolet spectra were obtained using photodiode array detection at 200-350 nm.

mouse tetrad model = settings: at high concentrations (DeLong et al., 2011); cited from earlier work

Triton X-100 [reference compound]
inhibition of recombinant CBCAS by additive (recombinant CBCAS): inhibited by high concentrations

C[S+](C)[O-] [DMSO, reference compound]
inhibition of recombinant CBCAS by additive (recombinant CBCAS): inhibited by high concentrations

CCCCCc1cc(O)c2c(c1)OC(C)(CCC=C(C)C)C=C2 (stereo not drawn) [CBC, cannabichromene]
THC-like activity in a mouse tetrad model (mouse tetrad model): shows THC-like activity

B1: recombinant CBCAS: Cannabis sativa cannabichromenic acid synthase (SEQ ID NO:2) expressed in Pichia pastoris with alpha-factor signal peptide (protein)
chain: MNCSTFSFWFVCKIIFFFLSFNIQISIANPQENFLKCFSEYIPNNPANPKFIYTQHDQLYMSVLNSTIQNLRFTSDTTPKPLVIVTPSNVSHIQASILCSKKVGLQIRTRSGGHDAEGLSYISQVPFAIVDLRNMHTVKVDIHSQTAWVEAGATLGEVYYWINEMNENFSFPGGYCPTVGVGGHFSGGGYGALMRNYGLAADNIIDAHLVNVDGKVLDRKSMGEDLFWAIRGGGGENFGIIAACKIKLVVVPSKATIFSVKKNMEIHGLVKLFNKWQNIAYKYDKDLMLTTHFRTRNITDNHGKNKTTVHGYFSSIFLGGVDSLVDLMNKSFPELGIKKTDCKELSWIDTTIFYSGVVNYNTANFKKEILLDRSAGKKTAFSIKLDYVKKLIPETAMVKILEKLYEEEVGVGMYVLYPYGGIMDEISESAIPFPHRAGIMYELWYTATWEKQEDNEKHINWVRSVYNFTTPYVSQNPRLAYLNYRDLDLGKTNPESPNNYTQARIWGEKYFGKNFNRLVKVKTKADPNNFFRNEQSIPPLPPRHH
modifications: alpha-factor signal peptide; Cannabis Sativa
temperature of maximal activity (recombinant CBCAS; 35, 40, 45 and 50° C. tested): 40 °C
pH optimum (recombinant CBCAS; FIG. 4, effect of buffer and buffer pH on CBCA production): 5.5
temperature optimum (recombinant CBCAS; FIG. 4, effect of incubation temperature on CBCA production): 40 degrees
pH of maximal activity (recombinant CBCAS; pH 3.5 to 7 tested): 5 and 5.5
formation of CBCA from CBGA (recombinant CBCAS): catalyzed the formation of CBCA from CBGA
formation of CBCA from CBGA (recombinant CBCAS; listed as CBCAS): produces CBCA
